Assay in all cases: SPR, KD relative to WT C2;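 note: biacore SPR at 37 °C, anti-C2 mAbs captured via immobilised goat anti-human IgG, C2 alanine or serine surface mutants as analytes, 1:1 model fitted, double-referenced sensograms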
For test [1], the target named is T1, human C2 N403A (human, UniProt P06681 21-752).
T1 sequence: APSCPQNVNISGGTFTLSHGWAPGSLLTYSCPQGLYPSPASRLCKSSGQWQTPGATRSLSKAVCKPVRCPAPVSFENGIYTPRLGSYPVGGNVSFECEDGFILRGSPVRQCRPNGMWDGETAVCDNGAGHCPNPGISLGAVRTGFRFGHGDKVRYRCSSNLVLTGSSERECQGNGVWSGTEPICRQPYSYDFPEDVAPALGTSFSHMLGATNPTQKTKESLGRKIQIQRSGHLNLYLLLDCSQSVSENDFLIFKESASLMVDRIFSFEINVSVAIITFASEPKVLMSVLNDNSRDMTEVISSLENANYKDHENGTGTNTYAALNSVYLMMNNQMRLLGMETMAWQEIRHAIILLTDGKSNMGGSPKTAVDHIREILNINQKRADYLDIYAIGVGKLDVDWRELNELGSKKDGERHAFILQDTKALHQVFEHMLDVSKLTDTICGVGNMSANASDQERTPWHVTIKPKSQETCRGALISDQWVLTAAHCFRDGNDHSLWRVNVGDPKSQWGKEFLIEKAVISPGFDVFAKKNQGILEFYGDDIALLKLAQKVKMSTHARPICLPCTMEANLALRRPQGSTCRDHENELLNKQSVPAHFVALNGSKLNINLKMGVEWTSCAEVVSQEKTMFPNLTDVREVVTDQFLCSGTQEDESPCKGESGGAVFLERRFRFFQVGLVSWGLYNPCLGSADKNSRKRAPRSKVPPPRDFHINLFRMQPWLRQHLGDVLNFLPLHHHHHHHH
Procedure: (§1) Surface plasmon resonance (SPR, Biacore) was used for all binding affinity analyses. In brief, goat anti-human IgG was directly immobilised onto the carboxymethyl dextran surface of CM5 sensorchips to approximately 12,000 RU using standard NHS/EDC chemistry at pH 5. The immobilised antibody surface was pre-conditioned with ten injections of polyclonal human IgG (Privigen 60 s) prepared at 1 μg/mL. Ligands (anti-C2 mAbs) were captured at the beginning of each cycle as described below. An adjacent spot or flow cell in which only Polyclonal IgG was capture was used as a reference surface. The goat anti-human IgG Fc antibody surface was regenerate in 100 mM H3PO4, injected for 45 seconds at the end of each cycle. Experiments were performed at 37° C. and the flow rate of each experiment was kept constant at 30 μL/min.
(§2) Sensogram data was double-referenced against a reference anti-IgG surface (i.e. minus anti-C2 mAb) and blank buffer injections obtained within each experiment. The binding data was fit to 1:1 (kinetic or steady-state) model using local Rmax and null refraction index (RI=0) when appropriate. Buffers and solutions were filtered (0.22 μm) prior to use.

In test [2] the target is T2, human C2 P724A (human, UniProt P06681 21-752).
T2 sequence: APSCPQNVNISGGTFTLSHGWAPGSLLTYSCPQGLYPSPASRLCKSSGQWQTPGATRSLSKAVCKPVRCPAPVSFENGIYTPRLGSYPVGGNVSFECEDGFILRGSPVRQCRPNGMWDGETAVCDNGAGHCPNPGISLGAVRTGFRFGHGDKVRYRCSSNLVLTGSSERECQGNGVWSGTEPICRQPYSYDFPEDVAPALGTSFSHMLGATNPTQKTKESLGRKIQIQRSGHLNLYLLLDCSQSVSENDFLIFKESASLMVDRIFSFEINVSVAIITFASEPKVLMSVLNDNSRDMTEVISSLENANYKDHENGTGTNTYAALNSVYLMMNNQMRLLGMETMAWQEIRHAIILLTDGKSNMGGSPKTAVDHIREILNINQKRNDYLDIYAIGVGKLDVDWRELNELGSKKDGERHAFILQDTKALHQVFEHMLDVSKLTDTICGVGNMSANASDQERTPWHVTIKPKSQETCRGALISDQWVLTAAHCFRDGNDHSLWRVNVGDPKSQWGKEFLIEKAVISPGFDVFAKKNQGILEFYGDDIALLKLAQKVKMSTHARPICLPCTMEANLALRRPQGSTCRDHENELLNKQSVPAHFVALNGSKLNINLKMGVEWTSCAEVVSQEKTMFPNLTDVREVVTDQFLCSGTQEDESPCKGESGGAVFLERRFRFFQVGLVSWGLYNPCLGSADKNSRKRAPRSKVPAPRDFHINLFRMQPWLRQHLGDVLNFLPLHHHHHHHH
Procedure: as §1, §2

The target in test [3] is T3, human C2 P650A (human, UniProt P06681 21-752).
T3 sequence: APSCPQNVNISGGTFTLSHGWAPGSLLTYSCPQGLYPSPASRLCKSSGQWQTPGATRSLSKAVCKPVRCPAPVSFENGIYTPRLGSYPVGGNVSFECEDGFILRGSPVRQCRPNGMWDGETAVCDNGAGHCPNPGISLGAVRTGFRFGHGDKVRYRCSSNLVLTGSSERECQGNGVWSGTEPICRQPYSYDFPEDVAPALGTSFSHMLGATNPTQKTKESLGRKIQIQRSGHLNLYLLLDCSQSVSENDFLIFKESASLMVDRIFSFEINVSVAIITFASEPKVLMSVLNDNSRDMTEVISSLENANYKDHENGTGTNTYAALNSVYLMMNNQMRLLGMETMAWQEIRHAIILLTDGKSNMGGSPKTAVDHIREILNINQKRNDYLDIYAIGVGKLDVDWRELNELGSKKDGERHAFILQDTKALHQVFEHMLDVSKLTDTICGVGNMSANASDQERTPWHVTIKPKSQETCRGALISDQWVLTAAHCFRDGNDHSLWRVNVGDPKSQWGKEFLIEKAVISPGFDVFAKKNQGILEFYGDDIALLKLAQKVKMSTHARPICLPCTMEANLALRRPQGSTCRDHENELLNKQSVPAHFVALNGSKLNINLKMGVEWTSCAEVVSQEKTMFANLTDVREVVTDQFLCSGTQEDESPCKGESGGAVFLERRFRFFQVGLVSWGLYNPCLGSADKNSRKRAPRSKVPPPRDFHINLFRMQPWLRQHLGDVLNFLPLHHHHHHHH
Procedure: as §1, §2

Test [4] concerns the target T4, human C2 V418A (human, UniProt P06681 21-752).
T4 sequence: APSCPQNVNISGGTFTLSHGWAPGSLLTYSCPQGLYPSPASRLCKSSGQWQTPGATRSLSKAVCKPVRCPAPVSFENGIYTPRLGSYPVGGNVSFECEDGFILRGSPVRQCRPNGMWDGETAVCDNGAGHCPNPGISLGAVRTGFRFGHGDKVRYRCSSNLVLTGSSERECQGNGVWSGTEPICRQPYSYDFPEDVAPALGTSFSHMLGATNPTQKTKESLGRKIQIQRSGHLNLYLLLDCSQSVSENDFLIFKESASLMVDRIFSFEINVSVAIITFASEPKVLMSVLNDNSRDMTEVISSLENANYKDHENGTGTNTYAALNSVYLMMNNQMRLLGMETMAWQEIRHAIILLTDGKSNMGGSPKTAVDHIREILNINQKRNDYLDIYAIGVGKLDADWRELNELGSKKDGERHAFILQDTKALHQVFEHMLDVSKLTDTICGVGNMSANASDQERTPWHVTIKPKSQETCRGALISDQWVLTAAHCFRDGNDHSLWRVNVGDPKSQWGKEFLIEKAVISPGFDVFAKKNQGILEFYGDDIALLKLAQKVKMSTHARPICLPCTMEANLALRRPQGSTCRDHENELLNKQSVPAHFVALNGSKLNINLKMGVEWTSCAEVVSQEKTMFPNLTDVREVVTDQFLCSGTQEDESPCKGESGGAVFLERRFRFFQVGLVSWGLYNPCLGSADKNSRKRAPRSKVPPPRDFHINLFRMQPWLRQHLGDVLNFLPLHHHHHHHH
Procedure: as §1, §2

The results in this text go back to patent publication US20220332804A1 (CSL INNOVATION, published 2022).

B1: RF16-226 (antibody, human IgG4 S228P, lambda)
heavy: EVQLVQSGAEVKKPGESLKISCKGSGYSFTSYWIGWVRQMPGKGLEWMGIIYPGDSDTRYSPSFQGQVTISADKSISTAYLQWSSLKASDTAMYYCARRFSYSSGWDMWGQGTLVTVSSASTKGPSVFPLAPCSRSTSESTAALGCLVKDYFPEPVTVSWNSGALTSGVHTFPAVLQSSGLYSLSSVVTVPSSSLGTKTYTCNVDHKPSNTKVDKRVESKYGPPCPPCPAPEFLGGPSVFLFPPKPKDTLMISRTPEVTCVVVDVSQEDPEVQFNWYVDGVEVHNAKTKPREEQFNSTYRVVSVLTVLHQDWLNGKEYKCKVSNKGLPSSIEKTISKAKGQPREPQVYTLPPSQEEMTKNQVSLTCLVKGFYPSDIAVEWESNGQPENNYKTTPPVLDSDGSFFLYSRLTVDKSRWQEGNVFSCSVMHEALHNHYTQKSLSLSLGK
light: SYELTQPPSVSVSPGQTARITCSGDALTSKYVAWYQQKSGLAPLLVIYEDTRRPSGIPAKFSGSSSGSVATLTISGAHGDDEADYYCYSTDASGHQRVFGGGTKLTVLSQPKAAPSVTLFPPSSEELQANKATLVCLISDFYPGAVTVAWKADGSPVKAGVETTKPSKQSNNKYAASSYLSLTPEQWKSHRSYSCQVTHEGSTVEKTVAPTECS
notes: pH-dependent anti-C2 antibody from a phage display library; also called WT
In the case of B1, the Fold diff in test [1] is 1 fold; in test [2], 40 fold; in test [3], 2 fold; in test [4], 1 fold.
